Assay results: doi:10.1101/2023.12.01.569544

Target: HIV-1 capsid A14C/E45C/W184A/M185A (HIV-CA) (HIV-1)
Assay: SEC

Q: For “HIV-1 capsid A14C/E45C/W184A/M185A (HIV-CA) (natural protein)”, which stoichiometry N is on record?
A: 6
